According to publication PMC9972897 (Science immunology, 2023):
Where a chain is given by its changes, count along the chain named.

Experiments:
[1] = molecular target: SARS-CoV-2 S-2P ectodomain trimer (ancestral) (SARS-CoV-2 (ancestral, MN908947), stabilised)
[2] = molecular target: SARS-CoV-2 fusion peptide (FP) coldspot peptide, 812-831 (SARS-CoV-2 (ancestral), biotin-Ahx at the N-terminus; C-terminal amidation)

B1: fp.001 (antibody, V domains shown)
VH: VQLVESGGGVVQPGRPLRLSCSGSGFIFSNYAMHWVRQAPGKGLEWVAIISFDARNKRYADSVEGRFTISRDNSKNILYLQMNSLRLEDSAVYFCARDLFLSDYDNGVYDPTRGGFDYWGQGTLVTVSS
VL: EIVMTQSPATLSLSPGERATLSCRASQSVNNRLAWYQQKLGQPPRLLISGASTRATGIPARFTGSGSGTEFTLTISSLQSEDFAVYYCQQYHDWPLLSFGGGTKVEIK
binding result [1]: binds
binding result [2]: binds

B2: fp.003 (antibody, V domains shown)
VH: VQLVESGGGVVQPGTSLRLSCTASGFSFSNYAMHWVRQAPGKGLEWVAIISFDTRNKEFADSVKGRFSISRDNSKNSLNLQMNSLRPEDTGVYYCARDLFLSDYDSRGYEPSRGGFDYWGQGTLVTVSS
VL: B1 VL with L13V, N30S, N31S, R32S, S49Y, T63S, Q79K, F83S, H92N
binding result [1]: binds
binding result [2]: binds

B3: fp.011 (antibody, V domains shown)
VH: EVQLLESGGGLVQPGGSLRLSCAGSGFTFNNYAMTWVRQAPGRGLEWVSAISGSGGSSHYADSVKGRFTITRDNSKNTLYLQMNSLRAEDTAVYYCAFIDYYSGWSYYYGLDVWGQGTTVTVSS
VL: EIVLTQSPATLSLSPGERATLSCRASQGVRTYVAWYQQKPGQAPRLLIYDASNRATGIPARFSGSGSGTDFTLTISSLEPEDFAVYYCQQRYNWPLCSFGQGTKLEIK
binding result [2]: binds

B4: hr2.094 (antibody, V domains shown)
VH: EVQLVESGGGLVQPGGSLRLSCAASGFTFSTFWMTWVRQAPGKGLEWVANIKSDGSEKYYVDSVKGRFTISRDNAKNSLYLQMNSLRAEDTAVYYCATWFGLHWGQGTLVTVSS
VL: DIVMTQSPDSLAVSLGERASINCKSSQTVLYSSNNKNYLAWYQQKPGQPPKLLIHWASTRDSGVPDRFSGSGSGTDFTLTISSLQAEDVAVYYCQQYHRIPWTFGRGTKVEIK
binding result [1]: binds

B5: hr2.020 (antibody, V domains shown)
VH: EVQLVQSGAEVKKPGESLKISCKGSGYRFASHWIGWVRQMPGKGLQWMGIIYPGDSDTKYSPSFQGQVTISADKSINTVYLHWTSLKASDTAVYYCARRPPHLDGGDSPIRFDHWGQGTLVTVSS
VL: QSVLTQPPSASGTPGQRVTISCSGSRSNIGSNDVYWYQQFPGTAPKLLIYRNNQRPSGVPDRFSGSKSGTSASLAISGLRSEDEADYYCATWDDRLTGVFGGGTKLTVV
binding result [1]: binds

B6: hr2.025 (antibody, V domains shown)
VH: EVQLVQSGAEVKKPGESLKISCKGSGYSFTNYWIAWVRLMPGKGLEWMGFIFPGDSDTRYSPSFQGQVTISADKSISTAYLQWSSLKASDTAIYYCARRRGNSGNHDPYGMDVWGHGTTVTVSS
VL: not shown
binding result [1]: binds

B7: hr2.017 (antibody, V domains shown)
VH: EVQLVESGGGLVQPGGSLRLSCAVSGFAFSSSWMHWIRQAPGRGLVWVSRINRDGSTTDYADSVKGRFTISRDNAKATLYLQMNSLRAEDTAVYYCATMGFDYWGQGALVTVSS
VL: DIVMTQSPDSLAVSLGERATINCKSSQNVLYSSNNKNHLSWYQQKPGQPPKLLIYWASTRKSGVPDRFSGSGSGTDFTLTINSLQAEDVAVYYCQQYFSTPNTFGQGTKLEIK
binding result [1]: binds

B8: hr2.086 (antibody, V domains shown)
VH: EVQLLESGGGLVQPGGYLRLSCAASGFTFSSYAMSWVRQAPGKGLEWVSVISGGGGSAYYADSVKGRFTISRDNSKNTLYLQMNSLRAEDTAVYYCAKIGMILVFDYWGQGTLVTVSS
VL: EIVLTQSPGTLSLSPGERATLSCRASQSVSNNYLAWYQQKPGQAPRLLISGASSRATGIPDRFSGSGSGTDFTLTISRLEPEDFAVYYCQQYGSSPPTFGQGTKVEIK
binding result [1]: binds

B9: fp.004 (antibody, V domains shown)
VH: VQLVESGGGVVQPGTSLRLSCVASGFTFSNYAMHWVRQAPGKGLEWVAIISFDTRNTASAASVKGRFNISRDNSKNSLYLQMNSLRPEDTGVYYCARDLFLSDYDSRGYDPITGGFDCWGQGTLVTVSS
VL: EIVMTQSPAALSVSPGEGATLSCRASQSVGSRLAWYQQKLGRPPRLLIYGASTRATGIPARFSGSGSGTEFTLTISSLQSEDFAVYYCQQYNDWPLLTFGGGTKVKIK
binding result [1]: binds
binding result [2]: binds

B10: hr2.021 (antibody, V domains shown)
VH: QVQLVQSGAEVKKPGASVKVSCKASEAIFSGSYLHWVRQAPGQGLEWMGIITPSGDKTFYAQRFQGRLTMTRDTSTNTLHMHLSGLNSEDTAMYYCARQADKGGWDYWGQGTLVTVSS
VL: EIVLTQSPGTLSLSPGERATLSCRASQSVTSNYVAWYQQKPGQAPRLLIYGASTRATGIPDRFSGGGSGTDFTLTITRLEPEDFAVYYCQQYGSSPPTFTFGPGTKVDIK
binding result [1]: binds

B11: hr2.024 (antibody, V domains shown)
VH: QVQLVQSGAEVKKPGASVKVSCKASEDIFTDSYLHWVRQAPGQGLEWMGIITPSGDKTFYAQQFQGRLTMTRDPSTNTLYMFLSGLRSDDTAMYFCARQAEKGGWDYWGHGTLVTVSS
VL: B10 VL with E17Q, A25S, S28T, V29I, V34L, K40R, T54I, G66S, T77S, T100I
binding result [1]: binds

B12: hr2.012 (antibody, V domains shown)
VH: QVQLVQSGAEVKKPGASVKVSCKASGYTFTSHYIHWVRQAPGQGLEWMGIIKPSGGNTIYAQTFQGRVTMTRDTSTSTVYMELRSLTSDDTAVYYCARDQDHGLQRWGQGTLVTVSS
VL: QSVLTQPPSVSAPPGQKVTISCSGSSSNIGNNFVSWYQQLPGTAPKLLIYDNIERPSGIPDRFSGSRSGTSATLGITGLQTGDEADYYCGTWDTSLGAWVFGGGTKVTVL
binding result [1]: binds

B13: hr2.013 (antibody, V domains shown)
VH: QVQLVQSGAEVKKPGASVKISCKASGYTFTNNYMNWVRQAPGQGLEWMGIIKPSSGSTIYAHKFQGRVTMTRDTSTSTVYMEVRSLTSEDTAVYYCARDQDHGLQNWGQGTLVTVSS
VL: B12 VL with P13A, P14S, S21Y, G30A, N31S, L40F, I53N, E54Q, V107L
binding result [1]: binds

B14: hr2.015 (antibody, V domains shown)
VH: QVQLVQSGAEVKKPGASVKVSCKASGYTFSSYYVNWVRQAPGQGLEWLGIINRSGSSTIYAQKFQGRVTMTRDTSTSTVYLELSSLRSEDTAVYYCARDQDHALHWGQGTLVTVSS
VL: B12 VL with P13A, N31S, F33Y, I53S, G97S, V107L
binding result [1]: binds

B15: hr2.018 (antibody, V domains shown)
VH: EVQLVESGGGLVKPGGSLRLSCVASGSSVIDAWMNWVRQAPGKGLEWVGRIKSKTNGATTDYAAPVKGRFTISRDDSKNLSYLQMNSLKTEDTGIYYCTTSPLPNFDYWGRGTLVTVSS
VL: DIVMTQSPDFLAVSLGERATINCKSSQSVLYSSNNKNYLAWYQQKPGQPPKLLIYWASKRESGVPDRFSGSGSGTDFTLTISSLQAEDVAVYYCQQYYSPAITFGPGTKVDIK
binding result [1]: binds

B16: hr2.019 (antibody, V domains shown)
VH: B15 VH with V23A, A32V, S53T, T55A, N56S, T59A, A63G, K89R, T90A
VL: DIVMTQSPDFLAVSLGETATINCRSSQSVFYFANNKNYLAWYQQKPGQPPKLLIYWASKRESGVPDRFSGSGSGTDFTLTISSLQAEDVATYYCQQYSSPAITFGPGTKVDIK
binding result [1]: binds

B17: fp.002 (antibody, V domains shown)
VH: VQLVESGGGVVQPGTSLRLSCAGSGFNFDNYAIHWVRQAPGQGLEWVAIISYEARNKKYAGSVTGRFSISRDNSKSMVYLQMDSLRGEDTAVYYCARDLFLSDYDRSGYDPTRGGFDLWGQGTLVTVSS
VL: EIVMTQSPATLSVSPGERATLSCRASQSVSSSLAWYQHKLGQAPRLLIYGASTRATGIPGRFSGSGSGTEFTLTISSLQSEDVAIYYCQQYGDWPLVTFGGGTKVEIK
binding result [1]: binds
binding result [2]: binds

B18: fp.005 (antibody, V domains shown)
VH: VQLVESGGGVVQPGNSLRLSCAASGFRFNNYAMHWVRQAPGKGLEWVAIISYEARNEKYADSVKGRFSISRDNAKNTLYLQMNSLRADDTGVYYCARDLFLSDYDTSGYDRTRGGFDYWGQGALVTVSS
VL: B17 VL with S31N, S32G, K39R, L40F, A43P, G60T, V83F, I85V, G92D, V97I
binding result [1]: binds
binding result [2]: binds

B19: fp.008 (antibody, V domains shown)
VH: VQLVESGGGVVQPGRSLRLSCRASGFRFNNYAMHWVRQAPGKGLEWVAIISYEARNEKYAASVKGRFSISRDNAKNTLYLQMNSLRPEDTAIYYCARDVFLSDYDQSGYDVTRGGFDYWGQGTLVTVSS
VL: B17 VL with R18S, L40F, G60D, T69M
binding result [1]: binds
binding result [2]: binds

B20: fp.009 (antibody, V domains shown)
VH: VQLVESGGGVVQPGTSLTLSCEASGFTFSNYAMHWVRQAPGKGLEWVAIISFDTRNKKFAGSVQGRFSISRDNAKNSIYLQMNNLRPEDTGIYYCARDVFLSDYDSRGFDRTRGGFDYWGQGTLVTVSS
VL: B17 VL with R18K, Q27E, S30G, H38Q, G60A, T69A, V83F, V97L
binding result [1]: binds
binding result [2]: binds

B21: hr2.014 (antibody, V domains shown)
VH: QVQLVQSGAEVKKPGASVKVSCKASGYTFTTYAVHWLRQVPGQRPEWIGWINAANGNTKYSEKFQGRVTITRDTSASTAYMDLRSLRSEDTAVYYCARLLVVRDDPYYYGMDVWGQGTTVTVSS
VL: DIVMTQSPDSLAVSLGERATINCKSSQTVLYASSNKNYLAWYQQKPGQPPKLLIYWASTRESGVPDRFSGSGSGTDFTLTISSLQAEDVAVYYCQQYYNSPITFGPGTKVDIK
binding result [1]: binds

B22: fp.010 (antibody, V domains shown)
VH: EVQLLESGGGLVQPGGSLRLSCAASGFTFSTYAMNWVRQAPGKGLEWVSAISSSGLSTQYADSVRGRFTISRDTSKNTLYLHMNSLRAGDTAVYYCAKVEYSGYDPRGPFDSWGQGTLVTVSS
VL: DIQMTQSPSTLSASVGDRVTITCRASQSISGWLAWYQQKPGRAPKLLIYKASSLERGVPSRFSGSGSGTEFTLTISSLQPDDFATYYCQEYSSYPLCTFGQGTKLEIK
binding result [2]: binds

B23: hr2.090 (antibody, V domains shown)
VH: EVQLLESGGGLVQPGGSLRLSCAASGVTFSRYAMSWVRQAPGKGLEWVSTISGGGGGTYYADSVKGRFTISRDNSKNTLYLQMNSLRAEDTAVYYCATLLTVPGPYYFEYWGQGTLVTVSS
VL: EIVLTQSPGTLSLSPGERATLSCRASQSVSSSYLAWYQQKPGQAPRLLIYGASSRATGIPDRFSGSGSGTDFTLTISRLESEDFAVYYCQHSRFTFGPGTRVDIK
binding result [1]: binds
